Reference: patent US9518103B2, “Optogenetic probes for measuring membrane potential” (President and Fellows of Harvard College, priority 2014, dated 2016)
Several values for one entry are separate records, joined by “and”; a condition that tells them apart may be missing. Equal values may be shown once. Entries after “also recorded” stand apart in the source; their conditions may differ.

Legend:
[1] = tested on: cultured rat hippocampal neurons; assay: Photocurrent in cultured rat hippocampal neurons; assay type: cell-based; conditions: for photocurrent (in words): red (640 nm, 300 W/cm^2, tested up to 900 W/cm^2) or blue (488 nm, 500 mW/cm^2) illumination; for photocurrent: red illumination (640 nm, 300 W/cm^2)
Method: FIGS. 4A-4B show the photophysics of QuasArs in mammalian cells. […] Steady state photocurrents were calculated by averaging the current over the last 0.25 seconds of light exposure and subtracting the holding current (cells held at −65 mV) in the dark. These currents hyperpolarized cells by 25±4 mV and 19±3 mV, respectively. […] The double mutants had mutations at the locations of the proton acceptor (Asp95) and proton donor (Asp106) to the Schiff base. QuasAr1 includes mutations D95H, D106H, and QuasAr2 includes mutations D95Q, D106H. The three additional backbone mutations in the QuasArs (P60S, T80S, F161V) increased brightness relative to the double mutants, Fluorescence of each Arch mutant was measured with excitation at 640 nm and emission from 660-760 nm. To control for variation in expression level, fluorescence was normalized by eGFP fluorescence (λexc=488 nm, λem=510−550 nm). Error bars represent s.e.m. for measurements on n=5-10 cells.
Measurements were performed on primary cultures at 13-15 DIV. Experiments were conducted in Tyrode's solution containing 125 mM NaCl, 2.5 mM KCl, 3 mM CaCl2, 1 mM MgCl2, 10 mM HEPES, 30 mM glucose (pH 7.3) and adjusted to 305-310 mOsm with sucrose. Prior to imaging, neurons were incubated with 5 μM all-trans retinal for 30 minutes and then washed with Tyrode's solution.
Synaptic blockers were added to the imaging medium for measurements of single-cell electrophysiology (Arch photocurrents, and single-cell excitability). The blockers comprised NBQX (10 μM, Tocris), D(−)-2-amino-5-phosphonovaleric acid (APS; […]), and gabazine (SR-95531, 20 μM, Tocris). For measurements of channel rhodopsin photocurrents in neurons, TTX (1 μM, Tocris) was included along with the synaptic blockers to prevent recruitment of voltage gated sodium channels. […] Recordings were terminated if membrane resistance changed by >10%. Experiments were performed at 23° C. under ambient atmosphere unless otherwise noted.

HEK293T cells = assay: Simultaneous whole-cell patch clamp electrophysiology and fluorescence in HEK cells (brightness, voltage sensitivity, speed); assay type: cell-based; conditions: for Brightness (λexc = 640 nm) 0.7 W/cm^2 / Brightness (λexc = 640 nm) 800 W/cm^2 / Sensitivity (ΔF/F per 100 mV): HEK293 cells; for voltage sensitivity (ΔF/F per 100 mV) / brightness relative to wild-type Arch: HEK cells; for brightness compared with corresponding double mutants: eGFP fusions in HEK cells, exc. 640 nm
Method: Simultaneous electrophysiology and fluorescence in HEK cells: HEK293T cells (ATCC CRL-11268) were cultured and transfected following standard protocols.^10 Briefly, HEK-293 cells were grown at 37° C., 5% CO2, in DMEM supplemented with 10% FBS and penicillin-streptomycin. Plasmids were transfected using Transit 293T (Mirus) following the manufacturer's instructions, and assayed 48 hours later. The day before recording, cells were re-plated onto glass-bottom dishes (MatTek) at a density of ˜10,000 cells/cm^2.
Cells were supplemented with retinal by diluting stock retinal solutions (40 mM, DMSO) in growth medium to a final concentration of 5 μM, and then returning the cells to the incubator for 0.5-1 hour. All imaging and electrophysiology were performed in Tyrode buffer (containing, in mM: 125 NaCl, 2.5 KCl, 3 CaCl2, 1 MgCl2, 10 HEPES, 30 glucose pH 7.3, and adjusted to 305-310 mOsm with sucrose). A gap junction blocker, 2-aminoethoxydiphenyl borate (50 μM, Sigma), was added to eliminate electrical coupling between cells.
Filamented glass micropipettes (WPI) were pulled to a tip resistance of 5-10 MΩ, and filled with internal solution containing 125 mM potassium gluconate, 8 mM NaCl, 0.6 mM MgCl2, 0.1 mM CaCl2, 1 mM EGTA, 10 mM HEPES, 4 mM Mg-ATP, 0.4 mM Na-GTP (pH 7.3); adjusted to 295 mOsm with sucrose. Pipettes were positioned with a Sutter MP285 manipulator. Whole-cell, voltage and current clamp recordings were acquired using an […] 700B amplifier (Molecular Devices), filtered at 2 kHz with the internal Bessel filter and digitized with a National Instruments PCIE-6323 acquisition board at 5-10 kHz. Data was only acquired from HEK cells having reversal potentials between −10 and −40 mV, access resistance<25 MΩ and membrane resistance>0.5 GΩ.
Simultaneous whole-cell patch clamp recordings and fluorescence recordings were acquired on a home-built, inverted epifluorescence microscope, described previously^10 and described below in “Apparatus”. For step response measurements, voltage clamp electronics were compensated 90-95%. We examined variants of QuasAr1 with mutations at position 95 (Asn, Cys, Gin, His and Tyr) and position 106 (Arg, Asp, Asn, Cys, Glu, His, Lys and Tyr). These experiments confirmed that histidine at position 106 provided undetectable photocurrent, and the best combination of improved voltage sensitivity, and fast kinetics.
We compared the fluorescence, voltage sensitivity, and speed of the QuasArs to wild-type Arch in HEK cells, using epifluorescence microscopy and whole-cell patch clamp electrophysiology. Under low intensity illumination (640 nm, 500 mW/cm^2), QuasAr1 was 15-fold brighter than wild-type Arch, and QuasAr2 was 3.3-fold brighter (FIG. 1B; Methods).

[2] = low intensity illumination (640 nm, 500 mW/cm^2)

Row | Molecule | photocurrent (in words) [1] | photocurrent [1] [pA] | τdown (+30 mV to −70 mV) % τ1 (HEK293T cells; 23° C.) [%] | τdown (+30 mV to −70 mV) τ1 (HEK293T cells; 23° C.) [ms] | τdown (+30 mV to −70 mV) τ2 (HEK293T cells; 23° C.) [ms] | τup (−70 mV to +30 mV) % τ1 (HEK293T cells; 23° C.) [%] | τup (−70 mV to +30 mV) τ1 (HEK293T cells; 23° C.) [ms] | τup (−70 mV to +30 mV) τ2 (HEK293T cells; 23° C.) [ms] | Brightness (λexc = 640 nm) 0.7 W/cm^2 (HEK293T cells; 23° C.) | Brightness (λexc = 640 nm) 800 W/cm^2 (HEK293T cells; 23° C.) | Sensitivity (ΔF/F per 100 mV) (HEK293T cells; 23° C.) [%] | step response time constant (single or first component) (HEK293T cells; 34° C., step −70 mV to +30 mV) [ms] | voltage sensitivity (ΔF/F per 100 mV) (HEK293T cells) [%] | brightness compared with corresponding double mutants (HEK293T cells) | brightness relative to wild-type Arch (HEK293T cells; high intensity (>100 W/cm^2)) | brightness relative to wild-type Arch (HEK293T cells; [2]) [fold] | also measured
1 | QuasAr1: Archaerhodopsin 3 variant with mutations P60S, T80S, D95H, D106H, F161V; genetically encoded voltage indicator (protein) MDPIALQAGYDLLGDGRPETLWLGIGTLLMLIGTFYFLVRGWGVTDKDAREYYAVTILVSGIASAAYLSMFFGIGLTEVSVGGEMLDIYYARYAHWLFTTPLLLLHLALLAKVDRVTIGTLVGVDALMIVTGLIGALSHTAIARYSWWLFSTICMIVVLYVLATSLRSAAKERGPEVASTFNTLTALVLVLWTAYPILWIIGTEGAGVVGLGIETLLFMVLDVTAKVGFGFILLRSRAILGDTEAPEPSAGADVSAAD | Neither QuasAr1 nor QuasAr2 generated detectable photocurrent; also recorded: Neither QuasAr1 (n=9 cells) nor QuasAr2 (n=7 cells) generated detectable photocurrents | 0 | 88 | 0.07 | 1.9 | 94 | 0.05 | 3.2 | 15.2 | 10.3 | 33 | ~0.05 | 32±3 | significantly brighter than the corresponding double mutants | 2.5 fold | 15 | response faster than fastest previously reported GEVIs (HEK293T cells): more than 10 fold; response time (HEK293T cells): 50 μs; voltage sensitivity compared with QuasAr2 (HEK293T cells): three-fold less than the sensitivity of QuasAr2; step response time constant (single or first component) (HEK293T cells; room temperature (23° C.), step −70 mV to +30 mV): < 0.05 ms and 0.053 ± 0.002 ms
2 | QuasAr2: Archaerhodopsin 3 variant with mutations P60S, T80S, D95Q, D106H, F161V; genetically encoded voltage indicator (protein) MDPIALQAGYDLLGDGRPETLWLGIGTLLMLIGTFYFLVRGWGVTDKDAREYYAVTILVSGIASAAYLSMFFGIGLTEVSVGGEMLDIYYARYAQWLFTTPLLLLHLALLAKVDRVTIGTLVGVDALMIVTGLIGALSHTAIARYSWWLFSTICMIVVLYVLATSLRSAAKERGPEVASTFNTLTALVLVLWTAYPILWIIGTEGAGVVGLGIETLLFMVLDVTAKVGFGFILLRSRAILGDTEAPEPSAGADVSAAD | Neither QuasAr1 nor QuasAr2 generated detectable photocurrent; also recorded: Neither QuasAr1 (n=9 cells) nor QuasAr2 (n=7 cells) generated detectable photocurrents | 0 | 80 | 1.0 | 15.9 | 68 | 1.2 | 11.8 | 3.4 | 3.4 | 90 | 0.3 ± 0.05 | 90±2 | significantly brighter than the corresponding double mutants | comparable | 3.3 | weight of first component of bi-exponential step response (HEK293T cells; 23° C.): 68%; weight of second component of bi-exponential step response (HEK293T cells; 23° C.): 32%; step response time constant (second component) (HEK293T cells; 23° C., step −70 mV to +30 mV): 11.8 ± 1.5 ms; step response time constant (second component) (HEK293T cells; 34° C.): 3.2 ± 0.4 ms; weight of first component of bi-exponential step response (HEK293T cells; 34° C.): 62%; weight of second component of bi-exponential step response (HEK293T cells; 34° C.): 38%; τdown (+30 mV to −70 mV) % τ1 (HEK293T cells; 34° C.): 73%; τdown (+30 mV to −70 mV) τ1 (HEK293T cells; 34° C.): 0.3 ms; τdown (+30 mV to −70 mV) τ2 (HEK293T cells; 34° C.): 4.0 ms; τup (−70 mV to +30 mV) % τ1 (HEK293T cells; 34° C.): 62%; τup (−70 mV to +30 mV) τ1 (HEK293T cells; 34° C.): 0.3 ms; τup (−70 mV to +30 mV) τ2 (HEK293T cells; 34° C.): 3.2 ms
